Changes are numbered by the printed parent chain. Read-outs that look alike come from different tables or passages of the source.
B1: F2-2 (bispecific antibody)
heavy 1: not shown
light 1: DVVLTQSPLSLPVTLGQPASISCKSSQSLLHSSGKTYLNWLLQRPGQSPRRLIYLVSKLDSGVPDRFSGSGSGTDFTLKISRVEAEDVGVYYCAQGTHFPRTFGGGTKVEIKRTVAAPSVFIFPPSDEQLKSGTASVVCLLNNFYPREAKVQWKVDNALQSGNSQESVTEQDSKDSTYSLSSTLTLSKADYEKHKVYACEVTHQGLSSPVTKSFNRGEC
heavy 2: not shown
light 2: not shown
B2: F2-3 (bispecific antibody)
heavy 1: not shown
light 1: DIQMTQSPSSVSASVGDRVTITCKASQNVGSNVAWYQQKPGKAPKALIYSASYRYSGVPSRFSGSGSGTDFTLTISSLQPEDFATYYCHQYNSYPPTFGQGTKLEIKRTVAAPSVFIFPPSDEQLKSGTASVVCLLNNFYPREAKVQWKVDNALQSGNSQESVTEQDSKDSTYSLSSTLTLSKADYEKHKVYACEVTHQGLSSPVTKSFNRGEC
heavy 2: not shown
light 2: not shown
B3: F4-7 (bispecific antibody)
heavy 1: not shown
light 1: not shown
heavy 2: EVQLVQSGAEVKKPGASVKVSCKASGYSFTGYTMNWVRQAPGKRPEWMGLINPYTGGTRNNQKFKDRVTLTVDKSASTAYMELSSLRSEDTAVYYCTRWGLRLAMDYWGQGTTVTVSSASTKGPSVFPLAPSSKSTSGGTAALGCLVKDYFPEPVTVSWNSGALTSGVHTFPAVLQSSGLYSLSSVVTVPSSSLGTQTYICNVNHKPSNTKVDKKVEPKSCDKTHTCPPCPAPEAAGGPSVFLFPPKPKDTLMISRTPEVTCVVVDVSHEDPEVKFNWYVDGVEVHNAKTKPREEQYNSTYRVVSVLTVLHQDWLNGKEYKCKVSNKALPAPIEKTISKAKGQPREPQVCTLPPSRDELTKNQVSLSCAVKGFYPSDIAVEWESNGQPENNYKTTPPVLDSDGSFFLVSKLTVDKSRWQQGNVFSCSVMHEALHNHYTQKSLSLSPGK
light 2: B2 light 1
B4: HJ-3 (bispecific antibody)
chain 1: not shown
chain 2: DIQMTQSPSSVSASVGDRVTITCRASQDIANYLSWYQQKPGKSPKLLIYGTSNLEVGVPSRFSGSRSGTDFTLTISSLQPEDFATYYCLQDKEFPRTFGGGTKVEIKGGGGSSGAPRFLTRPLAFVVSVGKDATLSSQIVGNPTPQVSWEKDKQPVTAGARFRLAQDGDLYRLKILDLQLSDSGQYVSRARNAIGEAFACLGLQVDAEA
chain 3: EVQLVQSGAEVKKPGSSVKVSCKASGYTFSNYLIEWVRQAPGQGLEWIGVIDPGVGDTNYNENFKGRATLTADKSTSTAYIELSSLRSEDTAVYYCAREDNTGTAFDYWGQGTTVTVSSASTKGPSVFPLAPSSKSTSGGTAALGCLVKDYFPEPVTVSWNSGALTSGVHTFPAVLQSSGLYSLSSVVTVPSSSLGTQTYICNVNHKPSNTKVDKKVEPKSCDKTHTCPPCPAPEAAGGPSVFLFPPKPKDTLMISRTPEVTCVVVDVSHEDPEVKFNWYVDGVEVHNAKTKPREEQYNSTYRVVSVLTVLHQDWLNGKEYKCKVSNKALPAPIEKTISKAKGQPREPQVCTLPPSREEMTKNQVSLSCAVKGFYPSDIAVEWESNGQPENNYKTTPPVLDSDGSFFLVSKLTVDKSRWQQGNVFSCSVMHEALHNHYTQKSLSLSPGKDYKDDDDK
chain 4: SIVMTQTPLSLSVTPGQPASISCKASQSVSSDVTWYLQKPGQSPQLLIYYVSEHYTGVPDRFSGSGYGTDFTLKISRVEAEDVGVYYCQQHHRFPLTFGQGTKLEIKRTVAAPSVFIFPPSDEQLKSGTASVVCLLNNFYPREAKVQWKVDNALQSGNSQESVTEQDSKDSTYSLSSTLTLSKADYEKHKVYACEVTHQGLSSPVTKSFNRGEC
B5: F4-4 (bispecific antibody)
heavy 1: not shown
light 1: not shown
heavy 2: EVQLVESGGGLVQPGGSLRLSCAASGFTFTDYYLSWVKQAPGKGLEWVAFIRNRAKGYTTEYSASVKGRFTISRDNSKNSLYLQMNSLRAEDTAVYYCARMGGKGWHFDVWGQGTTVTVSSASTKGPSVFPLAPSSKSTSGGTAALGCLVKDYFPEPVTVSWNSGALTSGVHTFPAVLQSSGLYSLSSVVTVPSSSLGTQTYICNVNHKPSNTKVDKKVEPKSCDKTHTCPPCPAPEAAGGPSVFLFPPKPKDTLMISRTPEVTCVVVDVSHEDPEVKFNWYVDGVEVHNAKTKPREEQYNSTYRVVSVLTVLHQDWLNGKEYKCKVSNKALPAPIEKTISKAKGQPREPQVCTLPPSRDELTKNQVSLSCAVKGFYPSDIAVEWESNGQPENNYKTTPPVLDSDGSFFLVSKLTVDKSRWQQGNVFSCSVMHEALHNHYTQKSLSLSPGK
light 2: DVVMTQSPLSLPVTPGEPASISCRSSQSIVHSNRNTYLEWYLQKPGQSPKLLIYKVSNRFSGVPDRFFGSGSGTDFTLKINRVEAEDVGVYYCFQGSHVPFTFGGGTKVEIKRTVAAPSVFIFPPSDEQLKSGTASVVCLLNNFYPREAKVQWKVDNALQSGNSQESVTEQDSKDSTYSLSSTLTLSKADYEKHKVYACEVTHQGLSSPVTKSFNRGEC
notes: formula 4
B6: F4-5 (bispecific antibody)
heavy 1: not shown
light 1: not shown
heavy 2: B5 heavy 2 with S77A, K78Q
light 2: B5 light 2
notes: formula 4
B7: PL-1 (bispecific antibody)
chain 1: not shown
chain 2: DIVLTQSPASLAVSPGQRATITCRASESVSIHGTHLMHWYQQKPGQPPKLLIYAASKLESGVPARFSGSGSGTDFTLTINPVEAEDTANYYCQQSFEDPLTFGQGTKLEIKGGGGSGIPPKIECLPIDISIDEGKVLTVASAFTGEPTPEVTWSTGGRKIHSQEQGRFHIENTDDLTTLIIKDVQKQDGGLYTLTLRNEFGSDSATVNIHIRSI
chain 3: not shown
chain 4: not shown
B8: PL-10 (bispecific antibody)
chain 1: not shown
chain 2: B7 chain 2 with A142C, L176S, I180T
chain 3: not shown
chain 4: not shown
B9: PL-4 (bispecific antibody)
chain 1: not shown
chain 2: B7 chain 2 with A142C, L176S, I180T
chain 3: not shown
chain 4: not shown
B10: PL-7 (bispecific antibody)
chain 1: not shown
chain 2: B7 chain 2 with A142C, L176S, I180T
chain 3: not shown
chain 4: not shown
B11: PL-3 (bispecific antibody)
chain 1: not shown
chain 2: B7 chain 2 with V136C, L176S, I180T
chain 3: not shown
chain 4: not shown
B12: PL-11 (bispecific antibody)
chain 1: not shown
chain 2: B7 chain 2 with G112R, G113T, G114V, G115A, L176S, I180T
chain 3: not shown
chain 4: not shown
B13: PL-13 (bispecific antibody)
chain 1: not shown
chain 2: B7 chain 2 with G112R, G113T, G114V, G115A, A142C, L176S, I180T
chain 3: not shown
chain 4: not shown
B14: PL-14 (bispecific antibody)
chain 1: not shown
chain 2: B7 chain 2 with G112R, G113T, G114V, G115A, L176S, I180T
chain 3: not shown
chain 4: not shown
B15: PL-17 (bispecific antibody)
chain 1: not shown
chain 2: B7 chain 2 with G112R, G113T, G114V, G115A, L176S, I180T
chain 3: not shown
chain 4: not shown
B16: PL-12 (bispecific antibody)
chain 1: not shown
chain 2: B7 chain 2 with G112R, G113T, G114V, G115A, V136C, L176S, I180T
chain 3: not shown
chain 4: not shown
B17: PL-15 (bispecific antibody)
chain 1: not shown
chain 2: B7 chain 2 with G112R, G113T, G114V, G115A, V136C, L176S, I180T
chain 3: not shown
chain 4: not shown
B18: PL-19 (bispecific antibody)
chain 1: not shown
chain 2: B7 chain 2 with G112R, G113T, G114V, G115A, A142C, L176S, I180T
chain 3: not shown
chain 4: not shown
B19: PL-6 (bispecific antibody)
chain 1: not shown
chain 2: B7 chain 2 with V136C, L176S, I180T
chain 3: not shown
chain 4: not shown
B20: PL-8 (bispecific antibody)
chain 1: not shown
chain 2: B7 chain 2 with L176S, I180T
chain 3: not shown
chain 4: not shown
B21: PL-5 (bispecific antibody)
chain 1: not shown
chain 2: B7 chain 2 with L176S, I180T
chain 3: not shown
chain 4: not shown
B22: PL-18 (bispecific antibody)
chain 1: not shown
chain 2: B7 chain 2 with G112R, G113T, G114V, G115A, V136C, L176S, I180T
chain 3: not shown
chain 4: not shown
B23: PL-2 (bispecific antibody)
chain 1: not shown
chain 2: B7 chain 2 with L176S, I180T
chain 3: not shown
chain 4: not shown
B24: PL-9 (bispecific antibody)
chain 1: not shown
chain 2: B7 chain 2 with V136C, L176S, I180T
chain 3: not shown
chain 4: not shown

How the values were obtained:
[1] = target: T1, human GPRC5D (human, UniProt Q9NZD1 1-345); test: cell-based or functional assay
T1 sequence (Q9NZD1 whole entry): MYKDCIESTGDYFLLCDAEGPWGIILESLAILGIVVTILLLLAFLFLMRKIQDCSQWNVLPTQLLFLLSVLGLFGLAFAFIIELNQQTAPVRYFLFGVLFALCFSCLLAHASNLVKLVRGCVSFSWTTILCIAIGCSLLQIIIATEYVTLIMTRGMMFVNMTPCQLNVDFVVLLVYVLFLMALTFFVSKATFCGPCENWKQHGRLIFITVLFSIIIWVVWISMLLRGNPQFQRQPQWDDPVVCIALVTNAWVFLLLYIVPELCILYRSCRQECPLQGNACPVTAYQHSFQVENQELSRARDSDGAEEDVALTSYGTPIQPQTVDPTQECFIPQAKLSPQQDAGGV

[2] = target: hIL5 (human, UniProt P05113 20-134); test: ELISA per WO2021139758 Test Example 4
[3] = target: hTSLP (human, UniProt Q969D9 29-159); test: ELISA per WO2021139758 Test Example 4
[4] = target: T2, cynomolgus monkey GPRC5D (cynomolgus monkey); test: FACS, CHOK1-cynoGPRC5D cells
T2 construct: whole, on cells; also called CynoGPRC5D; cynoGPRC5D
Protocol: (§1) To test the capacity of the GPRC5D/CD3 bispecific antibodies of the present disclosure to bind to GPRC5D, a flow cytometry assay was used in this test example to measure the capacity of the GPRC5D/CD3 bispecific antibodies to bind to the human multiple myeloma cell line MM.1R (ATCC® CRL-2975), which expresses GPRC5D, and to a stably transfected cell strain CHOK1-cynoGPRC5D, which expresses cynomolgus monkey GPRC5D. The specific procedure was as follows: The cells described above were cultured in complete culture medium containing 10% FBS, incubated in a 37° C., 5% CO₂ incubator for 2 days, and added to a cell plate at 1×10⁵ cells/well. The plate was centrifuged at 300 g for 5 min and washed once with 1% BSA. The antibodies were serially diluted to 8 concentrations and added to the cell plate at 100 μL/well. The plate was incubated at 4° C. for 1 h and washed once with 1% BSA. […] The plate was washed three times with 1% BSA, PBS was added at 100 μL/well, and plate reading was performed.

[5] = target: T1, human GPRC5D; test: FACS, MM.1R cells
Protocol: as §1

[6] = target: T1, human GPRC5D; test: FACS, MM.1R cells; remark: listed apart in the source
Protocol: as §1

[7] = target: T2, cynomolgus monkey GPRC5D; test: FACS, CHOK1-cynoGPRC5D cells; remark: listed apart in the source
Protocol: as §1

[8] = target: T3, hPDL1 (human, UniProt Q9NZQ7 19-238); test: ELISA per WO2021139758 Test Example 4
T3 construct: purchased from Sino biology
T3 sequence (Q9NZQ7 19-238 limits assumed): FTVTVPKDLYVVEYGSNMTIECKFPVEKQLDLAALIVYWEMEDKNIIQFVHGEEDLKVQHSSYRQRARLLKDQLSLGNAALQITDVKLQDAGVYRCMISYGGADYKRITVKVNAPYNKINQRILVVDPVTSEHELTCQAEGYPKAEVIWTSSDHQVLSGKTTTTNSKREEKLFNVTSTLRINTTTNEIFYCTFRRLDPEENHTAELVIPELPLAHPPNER

[9] = target: T4, hCTLA4 (human, UniProt P16410 36-161); test: ELISA per WO2021139758 Test Example 4
T4 construct: purchased from Sino biology
T4 sequence (P16410 36-161 limits assumed): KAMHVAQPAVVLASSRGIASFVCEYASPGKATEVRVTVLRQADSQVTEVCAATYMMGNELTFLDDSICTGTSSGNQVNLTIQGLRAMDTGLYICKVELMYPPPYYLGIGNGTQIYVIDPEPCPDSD

| Binder | EC50 [8] [nM] | EC50 [9] [nM] | further results |
| --- | --- | --- | --- |
| B1 |  |  | EC50 ratio (relative to JNJ-64407564), cytotoxic activity against NCI-H929 [1]: 0.26; Lysis rate %, cytotoxic activity against NCI-H929 [1]: 64.3% |
| B2 |  |  | EC50 ratio (relative to JNJ-64407564), cytotoxic activity against NCI-H929 [1]: 0.08; Lysis rate %, cytotoxic activity against NCI-H929 [1]: 61.5% |
| B3 |  |  | EC50 ratio (relative to JNJ-64407564), cytotoxic activity against NCI-H929 [1]: 0.16; Lysis rate %, cytotoxic activity against NCI-H929 [1]: 68.3% |
| B4 |  |  | EC50 [2]: 17.4 nM; EC50 [3]: 3.23 nM |
| B5 |  |  | EC50 [4]: 3.15 nM; Max [4]: 74900; EC50 [5]: 12.1 nM; Max [5]: 13600; EC50 [6]: 12.1 nM; EC50 [7]: 3.15 nM |
| B6 |  |  | EC50 [4]: 3.16 nM; Max [4]: 71300; EC50 [5]: 12.8 nM; Max [5]: 13400; EC50 [6]: 12.8 nM; EC50 [7]: 3.16 nM |
| B7 | 1.6 | 16.5 |  |
| B8 | 0.6 | 6.9 |  |
| B9 | 0.7 | 6.5 |  |
| B10 | 0.5 | 7.3 |  |
| B11 | 0.6 | 7.9 |  |
| B12 | 0.6 | 5.6 |  |
| B13 | 0.5 | 4.4 |  |
| B14 | 1.3 | 6 |  |
| B15 | 1.4 | 6.2 |  |
| B16 | 0.5 | 8 |  |
| B17 | 1.4 | 3.2 |  |
| B18 | 1.6 | 6.5 |  |
| B19 | 0.8 | 5.3 |  |
| B20 | 1.4 | 14.5 |  |
| B21 | 0.7 | 6.7 |  |
| B22 | 1.6 | 6.7 |  |
| B23 | 0.5 | 8 |  |
| B24 | 0.6 | 5.5 |  |

Reference: patent US20250215083A1 (JIANGSU HENGRUI PHARMACEUTICALS, published 2025)
